This is an account of results in publication PMC10943695, “Neutrophil elastase as a versatile cleavage enzyme for activation of αvβ3 integrin-targeted small molecule drug conjugates with different payload classes in the tumor microenvironment” (Frontiers in Pharmacology, 2024).

One may read the AUC(0-inf) as total exposure, with the tail of the curve extrapolated. By half-life is commonly meant the time in which the quantity being followed falls by half. In general, IC50 refers to the midpoint of a concentration-inhibition curve. As usually defined, the AUC(0-t) is the area under the concentration-time curve up to a stated or last time point. A word on the Cmax: it is the peak of the concentration-time curve.

Series [1] in a line: Intravenous pharmacokinetics in rat. In kind it is in vivo. Conditions: male Wistar rats, 0.5 mg/kg SMDC i.v., plasma. On the procedure: Pharmacokinetic properties of SMDCs and their respective payloads were characterized in rats. Briefly, male Wistar rats (n = 3) were given a 0.5 mg/kg dose of SMDC formulated in plasma/DMSO (99:1) intravenously (i.v.) via tail vein. Blood was collected at pre-dose, 2, 5, 15, 30, 45, 60 min, 2, 4, 7, 24 h post-dose and then processed to plasma. Plasma was frozen at < −20°C until sample analysis. Plasma samples were analyzed for concentrations of SMDCs and their respective released payloads by LC-MS/MS.
(§1) Pharmacokinetics of SMDCs and their respective payloads from in vivo studies were determined using mean concentration-time profiles. All pharmacokinetic parameters were calculated by non-compartmental methods as previously described ([Perrier and Gibaldi, 1982]).

The subject of a further series is NCI H69 SCLC xenograft. Put plainly: In vivo efficacy in NCI H69 SCLC xenograft model. Details: species or system mice. Particulars: 10 mg/kg i.v. weekly, 3 treatment cycles. On the procedure: For the NCI H69 study, immunocompromised mice were inoculated subcutaneously with 1.3 × 10^6 NCI H69 cells in 50% Matrigel/50% Media on day 0. Treatment was started at a mean tumor area in the range of […] in the NCI H69 model (n = 8/group, compound 4 at 5 mg/kg i. v., QW, and compound 6 at 40 mg/kg i. v., QW). In an independent experiment in the same CDX xenograft model compound 3 was tested at 10 mg/kg i. v., QW.

A short description of the next series: Stability in rat plasma. The series is classed as in vitro ADME. Particulars: 37 °C. The procedure:
The SMDC compounds 2, 3, 4, 5 and 6 (1 mg) were dissolved in acetonitrile/DMSO (1:1, 0.5 mL). While vortexing, 20 µL of this solution was added to 1 mL rat plasma at 37 °C. The incubation was stopped at respective time intervals by adding acetonitrile/buffer pH 3 (80:20) and the test compounds and formation of degradation products were analyzed by LC and LC/MS.

The test system of series [2] is SUM149PT (human IBC) cells. Put plainly: In vitro cytotoxicity, MTT assay, in absence or presence of neutrophil elastase. In kind it is cell-based. Conditions: 72 h exposure. The procedure: (§2) 786-O (human RCC), HT-29 (human CRC), NCI-H292 (human NSCLC), NCI-H69 (human SCLC), MX-1 (human TNBC), and SUM149PT (human IBC) cells were acquired from ATCC and cultured according to the provider’s instructions.
(§3) The in vitro cytotoxicity of the SMDCs in comparison to the respective payloads was tested in a panel of cancer cell lines after a 72 h continuous exposure in presence or absence of 20 nM neutrophil elastase using MTT assays (ATCC). IC50 values were determined as the concentration of compound required for 50% inhibition of cell viability.
(In general: Tetrazolium dyes change colour on reduction, which living cells bring about.)

Another series deals with 786-O (human RCC) cells. The description is as above. The series is classed as cell-based. Conditions: 72 h exposure. The procedure:
as §2, §3

The test system of series [3] is NCI-H292 (human NSCLC) cells. The description is as above. The series is classed as cell-based. Conditions: 72 h exposure. The procedure: as §2, §3
A further series has as its system HT-29 (human CRC) cells. The series is described as above. In kind it is cell-based. Conditions: 72 h exposure. On the procedure: as §2, §3
A short description of series [4]: Plasma and tumor pharmacokinetics in NCI H69 tumor-bearing mice. Conditions: single dose Compound 3 10 mg/kg IV, analyte conjugate 3 or released payload 8. The series is classed as in vivo. On the procedure:
In order to assess the selective concentration of payload to tumor tissue, the pharmacokinetic properties of the SMDC 3 and its payload 8, in plasma and tumor was also characterized in female NMRI nu/nu xenograft mice (Taconic M&B A/S) bearing NCI H69 human small cell lung cancer tumors. The mice were treated i. v. via the tail vein with a single dose of 3 at 10 mg/kg. Plasma and tumor samples were collected at 0.25, 1, 7, and 24 h after treatment (n = 2 mice/group at each time point) and were stored frozen at < −20°C until sample analysis. Concentrations of the SMDCs and their respective payloads were measured by LC-MS/MS.
as §1

A short description of series [5]: Stability in human plasma. In kind it is in vitro ADME. Particulars: 37 °C.
In series [6] the target is T1, human neutrophil elastase (Homo sapiens, UniProt P08246).
T1 sequence (P08246 30-267): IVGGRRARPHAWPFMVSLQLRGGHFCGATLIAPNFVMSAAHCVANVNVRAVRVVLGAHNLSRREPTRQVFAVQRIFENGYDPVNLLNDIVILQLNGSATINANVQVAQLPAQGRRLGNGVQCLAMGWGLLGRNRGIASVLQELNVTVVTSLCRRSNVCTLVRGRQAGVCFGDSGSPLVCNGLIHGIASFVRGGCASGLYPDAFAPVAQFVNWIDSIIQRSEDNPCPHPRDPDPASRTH
Description: Human neutrophil elastase cleavability assay. The series is classed as biochemical. Conditions: 5 µM SMDC, 20, 40, 60 nM NE, 1 h, 37°C. The procedure: For the NE cleavability assay, the SMDC test compound was added to buffer (150 mM NaCl, 10 mM CaCl2, 0.05% BSA) to a final concentration of 5 µM (0.5% DMSO). The reaction was started by adding different concentrations of human NE (0, 20, 40, 60 nM) to the reaction vials. After incubation for 1 h at 37°C, the enzymatic reaction was stopped by precipitation in 50% ACN. Subsequently, the samples were subjected to HPLC-MS analysis to determine the concentration of test compound and of its metabolite.

Series [7] can be described thus: Hydrolytic stability in PBS buffer at pH 7.4. The series is classed as physicochemical. Particulars: PBS pH 7.4, 37 °C, 24 h. On the procedure:
For hydrolytic stability measurement, compounds 2, 3, 4, 5 and 6 (0.15 mg) were dissolved in acetonitrile/DMSO (4:1, 0.5 mL) and 1 mL of PBS buffer at pH 7.4 was then added. The sample solution was analyzed by HPLC to determine the amount of the test compound and the formation of degradation products over a period of 24 h at 37 °C.

Like-named read-outs stand apart in the source and are kept apart here. Bounds are passed on as bounds.

Regarding `CCCNC(=O)Nc1cccc(S(=O)(=O)Nc2cccc([C@@H](CC(=O)O)NC(=O)Nc3ccc(NC(=O)NCCOCCOCCOCCC(=O)N[C@@H](CC(=O)O)C(=O)N4CCC[C@H]4C(=O)N[C@H](C(=O)N=S(C)(=O)Cc4cc5cc(c4)OC(C)CCOc4cc(F)ccc4-c4nc(ncc4F)N5)C(C)C)cc3)c2)c1` (stereo partly shown) [Compound 3], the Vss entry in series [1] was “comparable to plasma volume”. Further, the “payload/parent AUC ratio” value in series [1] (molar basis, 0.5 mg/kg) is 0.307. The same compound yielded an AUC(0-inf) in series [1] (rat, in vivo, iv) of 0.801 ± 0.126 µM·h. The half-life in [1] (rat, in vivo, iv) was 14.4 ± 3 min. The clearance in series [1] (rat, in vivo, iv, read-out: CLp) amounted to 6.6 ± 0.95 mL/min/kg. The Vd in series [1] (rat, in vivo, iv, read-out: Vss) was determined as 0.0366 ± 0.0053 L/kg. The “Tumor growth NCI H69” value in the series with NCI H69 SCLC xenograft is listed as “No significant inhibition”. The “Stability in rat plasma” value in the series “Stability in rat plasma” is “highly stable”. For the same compound, the IC50 was 1.2 nM in series [2] (with 20 nM neutrophil elastase, read-out: IC50 SUM149 PT + neutrophil elastase); 770 nM in series [2] (without neutrophil elastase, read-out: IC50 SUM149PT); 3.1 nM with 786-O (human RCC) cells (with 20 nM neutrophil elastase, read-out: IC50 786–0 + neutrophil elastase); above 1000 nM with 786-O (human RCC) cells (without neutrophil elastase, read-out: IC50 786–0); 4.5 nM in series [3] (with 20 nM neutrophil elastase, read-out: IC50 NCI-H292 + neutrophil elastase); 880 nM in [3] (without neutrophil elastase, read-out: IC50 NCI-H292). In addition, the IC50 was determined as 1.9 nM in the series with HT-29 (human CRC) cells (with 20 nM neutrophil elastase, read-out: IC50 HT29 + neutrophil elastase) and 990 nM in the series on HT-29 (human CRC) cells (without neutrophil elastase, read-out: IC50 HT29). The AUC(0-t) in series [4] (mouse, in vivo, plasma) amounted to 43 µM·h. Moreover, the Cmax in [4] (mouse, in vivo, plasma) turned out to be 49 µM. Moreover, the “tumor/plasma AUC ratio” value in [4] is 0.126. Moreover, in [5], the “Stability in human plasma” value was “highly stable”. Further, in series [6], the “Cleavage by human NE” value is on record as “essentially completely cleaved”. Further, in series [7], the “Stability in buffer pH 7.4” value is on record as “highly stable”.
